Assay results taken from paper PMC4489804.

Target: DCP1-CFP (Arabidopsis thaliana) (UniProt Q9SJF3)
Assay: FRET or BRET; FRET acceptor photobleaching in transiently transfected Arabidopsis leaf epidermis cells; DCP1-CFP donor, YFP-gSPI or free YFP acceptor, 35S promoter; whole cells and stationary P-bodies measured

UniProt Q9SJF3, sequence (Q9SJF3 whole entry): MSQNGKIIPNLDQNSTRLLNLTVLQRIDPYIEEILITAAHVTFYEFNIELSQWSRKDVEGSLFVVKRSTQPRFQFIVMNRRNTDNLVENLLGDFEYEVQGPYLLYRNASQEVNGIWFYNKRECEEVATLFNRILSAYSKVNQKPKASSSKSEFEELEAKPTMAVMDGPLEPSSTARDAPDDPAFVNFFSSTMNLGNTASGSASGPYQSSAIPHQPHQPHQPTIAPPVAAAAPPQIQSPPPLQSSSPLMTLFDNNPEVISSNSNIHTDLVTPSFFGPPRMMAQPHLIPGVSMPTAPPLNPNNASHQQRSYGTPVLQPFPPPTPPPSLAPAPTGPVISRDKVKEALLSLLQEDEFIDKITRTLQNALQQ

FRET efficiency (FRETE), immobile P-bodies: 23%
FRET efficiency (FRETE), whole cells: 27%
Substance: YFP-tagged full-length genomic SPI, F4HZB2 1-3601
